Measurements reported in US7223730.
Several values for one entry are separate records, joined by “and”; a condition that tells them apart may be missing. Identical values can stand only once.

How the values were obtained:
human fibrinogen = human fibrinogen (UniProt P02671)

antithrombosis enzyme purified from the snake venom of Southern-Anhui Agkistrodon acutus
fibrinogen cleavage (human fibrinogen): One fibrinogen cleavage site was found to be Met 235-Pro236 of the α chain of human fibrinogen
fibrinolytic activity (fibrin): 1 fibrinolytic activity unit per mg protein
fibrinolytic activity (fibrin-plate-clearance assay) (fibrin; scale: fibrinolytic activity units per mg of enzyme): 1 and 3
proteolytic activity (azocasein hydrolysis, absorbance at 390 nm) (azocasein): No proteolytic activity was detected in this assay
